According to patent US20260139032A1:

Target: T1, BMP-9 (UniProt Q9UK05)
T1 sequence (looked up): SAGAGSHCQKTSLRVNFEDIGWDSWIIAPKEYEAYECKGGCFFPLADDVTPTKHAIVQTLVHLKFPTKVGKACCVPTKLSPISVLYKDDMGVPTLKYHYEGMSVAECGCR
Assay: cell-based or functional assay

BMP-9 IC50 (nM), BMP-reporter HepG2 cell-based assay [nM] | fold decrease of inhibition potency on BMP-9, BMP-reporter HepG2 assay [fold] | Substance
485 | > 100 | P1193 (hActRIIB L33Y F58E, 10 aa linker, IgG1-DL Fc) (Fc fusion)
667 | > 100 | P1198 (hActRIIB L33Q F58E, 3 aa GGG linker, IgG1-DL Fc) (Fc fusion)
